Like-named read-outs stand apart in the source and are kept apart here. Blank lines part the entries; values can stand above or below the molecule they belong to.
Test: Estimation of binding affinity by Octet
Excerpt: Murine R24 (mR24) is a murine antibody that binds GD3 (SEQ ID NOs: 17 and 19). To minimize the risk of immunogenicity, an attempt was made to humanize mR24 for further therapeutic development. An earlier attempt to humanize mR24 is disclosed in WO2008/101234. The CDRs of murine antibody mR24 were identified using Kabat. Humanization of mR24 was first attempted using the semi-empirical framework shuffle approach. In this approach, human germline frameworks with a high degree of homology with mR24 sequences, VL frameworks V1-12 and V3-11 and VH framework V3-7, were selected. The selected frameworks were then used as the acceptor framework for mR24 without any backmutations in the framework region. The CDRs of mR24 were then inserted into the acceptor frameworks, and antibody proteins were generated and assessed for their expression yield, purification properties, and GD3 target binding activity. After screening, two advanced humanization variants with high GD3 binding activity, overall expression yields, and stability, hAb 21 (SEQ ID NOs: 30 and 31, VL framework V3-11 and VH framework V3-7) and hAb3 (SEQ ID NOs: 32 and 33, VL framework V1-12 and VH framework V3-7), were further evaluated for their aggregation level after purification.

[1] = antibody concentrated (Ab 3 21.2 mg/ml, hAb 21 27.8 mg/ml), in Tier-1 buffer

Kd: 9.02 nM
Kdis: 0.00596 s⁻¹
Kon: 1.33e+06 M⁻¹ s⁻¹
B1: KM871: chR24 (hAb.51) chimeric version (hIgG1, kappa) of KM641 (SEQ ID NOs: 28 and 29) (antibody, V domains shown)
VH: EVTLVESGGDFVKPGGSLKVSCAASGFAFSHYAMSWVRQTPAKRLEWVAYISSGGSGTYYSDSVKGRFTISRDNAKNTLYLQMRSLRSEDSAMYFCTRVKLGTYYFDSWGQGTTLTVSS
VL: DIQMTQTASSLPASLGDRVTISCSASQDISNYLNWYQQKPDGTVKLLIFYSSNLHSGVPSRFSGGGSGTDYSLTISNLEPEDIATYFCHQYSKLPWTFGGGTKLEIK

Kd [1]: 59.7 nM
Kdis [1]: 0.00278 s⁻¹
Kon [1]: 75400 M⁻¹ s⁻¹
Kd (antibody dialyzed in PBS): 55.8 nM
Kdis (antibody dialyzed in PBS): 0.00144 s⁻¹
Kon (antibody dialyzed in PBS): 37700 M⁻¹ s⁻¹
B2: hAb 3: fully humanized mR24 based on framework shuffle (SEQ ID NOs: 32 and 33, VL framework V1-12 and VH framework V3-7) (antibody, V domains shown)
VH: EVQLVESGGGLVQPGGSLRLSCAASGFTFSNFGMHWVRQAPGKGLEWVAYISSGGSSINYADTVKGRFTISRDNAKNSLYLQMNSLRAEDTAVYYCARGGTGTRSLYYFDYWGQGTLVTVSS
VL: DIQMTQSPSSVSASVGDRVTITCRASQDIGNFLNWYQQKPGKAPKLLIYYTSRLQSGVPSRFSGSGSGTDFTLTISSLQPEDFATYYCQQGKTLPYTFGGGTKVEIK

Kd [1]: 31.1 nM
Kdis [1]: 0.00111 s⁻¹
Kon [1]: 44600 M⁻¹ s⁻¹
Kd (antibody dialyzed in PBS): 28.9 nM
Kdis (antibody dialyzed in PBS): 0.00136 s⁻¹
Kon (antibody dialyzed in PBS): 59700 M⁻¹ s⁻¹
B3: hAb 21: fully humanized mR24 based on framework shuffle (SEQ ID NOs: 30 and 31, VL framework V3-11 and VH framework V3-7) (antibody, V domains shown)
VH: B2 VH
VL: EIVLTQSPATLSLSPGERATLSCRASQDIGNFLNWYQQKPGQAPRLLIYYTSRLQSGIPARFSGSGSGTDFTLTISSLEPEDFAVYYCQQGKTLPYTFGGGTKVEIK
